# Test: soluble fraction after stress (log2 fold change); higher = more stays soluble; pooled small domains, quantitative proteomics
# Details: stress: 50 degC
# Outline: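 After stress at 50°C, the amount of each protein still soluble was measured. This was done on pooled custom libraries of small protein domains, using high-throughput quantitative proteomics. The figure given is a base-two log fold change and stands for aggregation propensity, with higher values meaning more protein stays in solution.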
row,Sequence,soluble fraction (log2)
1,HMANWRVGQTINALVSDRMPSGGLLLTVGRQSFVTTRDIPVQPGARIMLEVQQVEPKLVLRLVSA,-1.17
2,HMEQMSPYPNPSKGKIQFHNQEPMDIKVFNSLGQIVFEQRILSRAILDLSRLSPGQYIVQAGEQKNIWIK,-0.699
3,HMVSLNKTEFIAVKKASASELRDKINSLGLDVLKDATISADARTNQIIATGPKYALEQIKMLVVGLDVSS,0.0771
4,HMTKYEGLSLDLIIDGVVITHNLKLAKLDMNWLLDRLKENGWDNPKDIFYAYIDTAGNFRFQPKLKASRTR,0.202
5,HMQPSFFEMIRMVESYIKQHFENVGNEFPEIARAIYYGIEEERNIYGTASREDMEELLDEGIPILPVP,-0.926
6,HMGHLSNENAGRLLDRVLNDKIHAIMLGHLSKENNMPELAHEAVRMEITMGESRYKADDFPIYVA,0.11
7,HMGTGQTNEKLAVLTNIQKTQEQILLTLGAKNPLVNLKQYRETLAKILSLSGYKNSNEFFLDPM,-0.0851
8,HMLETHRRRQIILSLLRESGMLDVDEVAARLVVSPNTIRNDFNALAAEGLLRRIRGGATLAEP,-0.349
9,HMKLTESQLHKFTNDAVLAHIRNLIEFKGAFTEDDIEPIIRDRAAVYGIDLEDEDYKKVKTDVEYHFK,-0.000214
10,HMEFDYIVKVPDVRNKKIEDAGKILIDLGLKYTTESDYITQDLKVIDQFPLPGTEVSKGSIIDIYLEEDFK,0.0944
11,HMQVSDLSAIDSLIDKVLSEQQAAVQDFRSGQGKAMGFLIGKVMQASDGKANPKVIRELMGKKLA,0.159
12,HMVMSVGENIAYFRKKLGLTQEMLSERIGVTAQAVSKWENGVTNPDISLLPRISEALGIGIGDLFD,-0.299
13,HMKTTVEVSPIARPGAVASGSVKFGSGVTAEWMLDQYGRLGLDKPTGKPTEQDIKEFQIELQKAL,0.165
14,HMTPKVDLTVAEDGSASAVIAGLRVEIDAAGKVTAVAPADGTTDLSSVAPEAVKEAMDNALAAYTASKG,0.0555
15,HMADVLLKHGSSGDYVWDLQYRLKTLSLFDQEMTGYFGPHTRQAVVNFQRKYGLPADGVVGPATWRALRK,-2.27
16,HMYEGLILINKYDSLVSAKLETNKIKSLGLFFEDMEEKIAVFSGPFKNNDINLKLDFLIRNGYLDAKIY,-4.51
17,HMFPSLSPEEQAVVDVLQRNNDLQINMLSVQSGLTISRLTALLFQLEMKGVIKPLAGGMYHLL,0.0206
18,HMGTSMDPPVIIVSDGKLIQKGLEVSGLKKQWLYDLIDRKHMKISDIFLLTADKTGKYNLIKRS,0.0904
19,HMYNMEELAGHTEKVYNSLPEELKLVIKLREIENMSYDEISLKTGMPIGTVRSRLHRAREILVDSLKDY,-0.367
20,HMKPDIETQLKKYRYKVSVSKKIKPYMVFSDKTLSELLTKSPTNLKELEDINGFGPVKVQEYGAAILEILK,-0.777
21,HMREIDIWVAEDADSQRIDKYLSMVVEDLSRSRIASLIEGGSILVNGEVIRAKYKVKPADHITAAFEDEM,-0.72
22,HMQSLDGPSRAAIVLMAIGPDVAGELIKSFSPAEAQKVSSLLATVRSLDREVMIEVLDSFKNITEH,-0.323
23,HMHSDSEIEKGYTDDGQKLSNVNGVYMTKSEMYNKGIVEKDPNTGEEVMGRNRVNPVTGELE,0.164
24,HMGGEEPYGSGSLRLAAGAVVPSGYTIKGNEDSMLYHTTESPWYKQTIAEVWFNAESAAQRAGFTRWDAKD,-0.114
25,HMESKDIRYVQLQTVSPEEVLQALALIMPRSDVYVEPTGKLVVLHGSKETLDRAEELILALDNAV,0.0118
26,HMGPEQLIGKTGIAASELAPRGEVKIEGQIWRAETVGDHVKQGEPVEVVSREGLILRVKPKHPQTRG,0.214
27,HMLRTEYLTVNYAKASEVAELVTASGFLSSRGSITVDERTNTLLLQDTATNIDEVRFMLEQLD,-0.443
28,HMKKIYEEVSEAILTMIKNGTLKPGDKLLPVHQLAEQFQVGRSAVREALSALRAMGLIEMKQGEGTYVKNF,-0.462

row,Sequence,soluble fraction (log2)
1,HMADIGRMKELIDILNRASAVYYQGKDEIMSNFEYDKLYDELVSLEKESGLVLAGSPTQKVGY,0.153
2,HMAPTPAGNLRSLKSEIVNYTRQSSTAYVYTFKDLSSGELYTARASRYYAAAGDTAYISTAAGAITDM,0.0171
3,HMFPELSPEEQLIVEVLSKTNDLQVNLISVKTNIDISRLTSLLFTLEMKGVIKTFAGGMYHLL,-0.538
4,HMAPRIVTIQIPVDKIRDVIGPGGKVIRSIIERTGVKIDVEDDGRVNVASADGDSAQRAIAIIQELTAT,0.0444
5,HMKLTEGETIFLNESDTADWKKIPGIGSVYASRIVKYRNLLGGFVSVNQLREVYGIDDELFAKIYPYI,-0.0044
6,HMGLDERNLKLFAASLLEQAGKKITESTMTYLLDKTGSDMENIQNEVEKIIGYTMNHTVVTTEDIDAV,-0.271
7,HMAEEPLRIWTDLQGRSIEASFIKFSGNNIVIKMKSGRDYEVARSLFSPGDQKYLSDLKKSTPE,-0.701
8,HMNLVRQHTDYAFRLLVALSQAPGKPISTRTLASAADVPYQFASKIMQKLHEEGLVESVMGPFGGFRLVQ,-2.52
9,HMNKKEQYQNIISNFLEKMSEEDRLIFNMHFFKSINISQIARSIDREGYYVKTKIENLLADLKSLMIGNNL,-1.95
10,HMDFTMSEIQTAMAALPRGYRTVVQLYLVDGYSHKEIAEMLGVDVNTSKSQLSRGRKQLQAFLAAMS,-0.674
11,HMNKITIDQAKEIALNHAKLTAEQVSFIRTESEFDDGIEKYNIEFYYNNQKYDYDINAVNGQIIQYDLEG,-0.0582
12,HMIRVGRPQYKRGEFVSFDFDNGRKKTEMYGRVDVIDSYGTFGQGREVSYDIRASDGILYKHIPESSVYGF,-1.5
13,HMSDTFTITTESGRIDKIITAHETTHTRSQVQKWLQDGLVTVNGNPVKANFKVTAGDVVTVTIPEVK,0.104
14,HMGGYVTGTIDLTKFGYAFVITEESEDDVFVAARNLNTALHGDQVKVLLYARHKGKRPEGEVVEIISRSRA,-1.11
15,HMNDEQFAIAKNDLLLSLYDGKEVNNSAAEYIIAWESLEKSPSDYISSQLKNTAESIIKISFD,0.0499
16,HMSSHSAEAVRHRIKSMIDHEARDGDVLSDDRIVELLNQAGIDIARRTVAKYREALRIPSSVERKRRLKA,0.0377
17,HMFDDEELDRFAGVPADAYLPADEDEFREVFYTMRPGEVVEWVRSLELRHIEIPNGIKDEIFMMIR,-3.35
18,HMEYREFEAMTIRAIATLPPTQGHVIMLSRFEGLDNKEIALRLNLSLQTVKNTLTQGLKELKNKMRKLP,-1.8
19,HMFDKNKPVVVEGENAEVALKKVSKYFNVPTEKLDYTLLGQKSAGLLGIGSKVYQFKVWLKREIP,0.396
20,HMEALASESVKDKIRKIIDSEDPSRPMSDQRIKEMLKAANIDIARRTVTKYREAMNILSSTKRRQV,-0.272
21,HMAKRINVKLIMELSAGGLTQNEIASSRHFSKTSVNLVLKTARELNVSAADLREMSPEEAYRLFFPEK,-1.43
22,HMTYMWTTDGVNLRSEPNTDSAVVTVLGVGTQVRMIGEEDGWVKVSFNDQEGYIRADFLTTE,-0.0926
23,HMRSFGRLRRRDSGRWEAAYVGPDARLYRAPATFEAKDDAIAWLSAERRMIELDTWIKPHDRASR,-1.11
24,HMEAPPHEALSNREFQVLQLLSQGRSVTQIAHQLTLSANTISTYRARIFDKLGLHNPADLYAYAARHGLM,-0.676
25,HMGKGGVAYLLESEFGIELPKDMQREFGPIANDIVDSLGREVSGAELKSMFWKEYIERETPFLLLLVTGQL,0.457
26,HMYLPPYMEVRAVMILDGKPMALMYIEGEGDGLIVSPGYKFDNGKGKVVSITPTKVVVLWAGTKMELG,-2.14
27,HMDDATDLPYQEFRTQVSDGQVKIAQFNNNTGKITFESISGDKFKTSGPLELSSDDERLFLENIEDFKFFT,0.104
